From patent publication US20220333113

How the values were obtained:
[1] = target: T1, RIG-I helicase domain (aa 229-793) (Homo sapiens) (UniProt O95786); test: filter; conditions: J = PPdU at every J; SB18T0.01 + 1 mM DTT, 37 C
T1 sequence: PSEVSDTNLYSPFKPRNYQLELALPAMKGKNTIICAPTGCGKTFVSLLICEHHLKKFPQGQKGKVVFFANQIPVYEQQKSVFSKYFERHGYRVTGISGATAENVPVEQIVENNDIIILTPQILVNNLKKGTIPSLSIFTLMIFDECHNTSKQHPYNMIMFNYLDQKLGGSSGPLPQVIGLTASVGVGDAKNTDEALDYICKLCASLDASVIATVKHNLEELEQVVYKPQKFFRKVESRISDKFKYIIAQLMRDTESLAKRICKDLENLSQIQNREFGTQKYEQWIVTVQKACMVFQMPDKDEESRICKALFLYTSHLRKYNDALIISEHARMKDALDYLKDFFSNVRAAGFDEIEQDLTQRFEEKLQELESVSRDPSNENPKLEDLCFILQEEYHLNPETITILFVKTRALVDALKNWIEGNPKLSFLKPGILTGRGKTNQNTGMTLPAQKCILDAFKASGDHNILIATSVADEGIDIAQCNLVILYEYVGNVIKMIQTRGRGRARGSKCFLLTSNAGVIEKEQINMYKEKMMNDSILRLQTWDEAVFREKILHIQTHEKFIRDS

[2] = target: T2, RIG-I K888A (Homo sapiens) (UniProt O95786); test: filter; conditions: J = PPdU at every J; SB18T0.01 + 1 mM DTT, 37 C
T2 sequence: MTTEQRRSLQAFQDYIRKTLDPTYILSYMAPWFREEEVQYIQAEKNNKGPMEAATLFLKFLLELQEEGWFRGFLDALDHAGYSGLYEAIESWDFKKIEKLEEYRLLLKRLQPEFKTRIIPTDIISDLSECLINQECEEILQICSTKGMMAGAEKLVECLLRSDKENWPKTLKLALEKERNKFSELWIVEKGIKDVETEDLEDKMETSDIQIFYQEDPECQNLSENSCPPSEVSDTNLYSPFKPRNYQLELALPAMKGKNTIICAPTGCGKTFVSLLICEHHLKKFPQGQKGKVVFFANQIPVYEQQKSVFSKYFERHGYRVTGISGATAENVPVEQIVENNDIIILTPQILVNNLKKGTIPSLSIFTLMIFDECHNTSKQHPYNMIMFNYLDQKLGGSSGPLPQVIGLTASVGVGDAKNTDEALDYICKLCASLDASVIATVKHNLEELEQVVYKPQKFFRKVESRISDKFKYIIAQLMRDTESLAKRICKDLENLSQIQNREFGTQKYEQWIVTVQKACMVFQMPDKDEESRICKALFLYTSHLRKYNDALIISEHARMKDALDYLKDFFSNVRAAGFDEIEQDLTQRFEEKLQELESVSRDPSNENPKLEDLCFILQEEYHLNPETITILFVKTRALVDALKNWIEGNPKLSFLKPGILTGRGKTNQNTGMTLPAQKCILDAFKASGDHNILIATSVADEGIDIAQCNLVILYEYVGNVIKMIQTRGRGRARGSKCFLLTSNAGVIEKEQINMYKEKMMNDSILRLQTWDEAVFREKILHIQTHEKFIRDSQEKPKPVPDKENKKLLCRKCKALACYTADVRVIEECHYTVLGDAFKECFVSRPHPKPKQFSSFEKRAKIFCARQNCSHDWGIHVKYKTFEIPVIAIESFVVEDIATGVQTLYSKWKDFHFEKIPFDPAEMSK

## ATCTCTGTGTCATGTGTTTTAATGTCAGTTTAATGATGAGG [14832-55_8]
[1]
  Kd: 10 nM
[2]
  Kd: 0.53 nM
